Source: patent publication US20220332835A1 (SHANGHAITECH UNIVERSITY, published 2022)
Positions count from the first letter of the chain named. Each block holds one molecule with its values, some of them ahead of it.

Key:
[1] = molecular target: T1, human CXCR2 (hCXCR2) on cells (human, UniProt P25025 1-360); experiment: cell-based or functional assay
T1 sequence (looked up): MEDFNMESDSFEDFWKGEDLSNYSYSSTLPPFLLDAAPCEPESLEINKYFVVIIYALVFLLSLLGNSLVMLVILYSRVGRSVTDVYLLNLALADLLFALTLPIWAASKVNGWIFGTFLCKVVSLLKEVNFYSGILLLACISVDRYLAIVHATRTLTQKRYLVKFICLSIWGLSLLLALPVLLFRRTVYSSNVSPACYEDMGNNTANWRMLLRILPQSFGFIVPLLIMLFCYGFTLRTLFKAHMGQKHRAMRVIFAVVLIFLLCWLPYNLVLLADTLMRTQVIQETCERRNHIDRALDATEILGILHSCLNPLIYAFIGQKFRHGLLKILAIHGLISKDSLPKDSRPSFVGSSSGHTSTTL

[2] = molecular target: pepN48 (peptide of the 48 N-terminal extracellular amino acids of human CXCR2) (human); experiment: SPR, Biacore
[3] = molecular target: hCXCR2-mCherry (human CXCR2 fused with mCherry, on U2OS cells) (human) (UniProt P25025); experiment: flow cytometry, U2OS cells with hCXCR2-mCherry (ECD-A axis), antibody staining on the FITC-A axis; other quadrants UL 1.80%, LL 33.80%, LR 18.24%
rCXCR2-mCherry = molecular target: T2, rCXCR2-mCherry (rat, UniProt P35407 1-359); experiment: FACS on transfected U2OS cells
T2 construct: whole, on cells; Overexpressed in U2OS cells; also called CXCR2 of rat; not shown: mCherry fluorescent tag
T2 sequence (looked up): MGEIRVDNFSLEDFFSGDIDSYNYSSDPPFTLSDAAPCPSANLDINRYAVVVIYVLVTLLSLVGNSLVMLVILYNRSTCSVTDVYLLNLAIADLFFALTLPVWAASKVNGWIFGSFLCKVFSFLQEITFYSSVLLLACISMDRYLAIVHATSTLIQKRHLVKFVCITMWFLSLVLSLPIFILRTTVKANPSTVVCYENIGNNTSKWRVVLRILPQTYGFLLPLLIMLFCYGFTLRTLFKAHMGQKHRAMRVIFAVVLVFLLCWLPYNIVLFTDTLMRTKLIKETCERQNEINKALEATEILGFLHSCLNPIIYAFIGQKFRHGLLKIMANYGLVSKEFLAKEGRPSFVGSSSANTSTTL

rbCXCR2-mCherry = molecular target: T3, rbCXCR2-mCherry (rabbit, UniProt P35344 1-358); experiment: FACS on transfected U2OS cells
T3 construct: whole, on cells; Overexpressed in U2OS cells; also called rabbitCXCR2; CXCR2 of rabbit; not shown: mCherry fluorescent tag
T3 sequence (looked up): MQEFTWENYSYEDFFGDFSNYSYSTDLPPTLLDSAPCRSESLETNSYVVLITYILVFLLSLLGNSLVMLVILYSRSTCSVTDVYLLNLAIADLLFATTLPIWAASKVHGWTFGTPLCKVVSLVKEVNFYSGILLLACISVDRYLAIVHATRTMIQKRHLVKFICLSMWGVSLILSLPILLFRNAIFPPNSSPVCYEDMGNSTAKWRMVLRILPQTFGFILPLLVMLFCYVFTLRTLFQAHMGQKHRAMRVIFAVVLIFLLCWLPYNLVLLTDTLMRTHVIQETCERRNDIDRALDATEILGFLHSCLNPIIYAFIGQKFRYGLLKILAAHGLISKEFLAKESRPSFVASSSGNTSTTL

[4] = molecular target: T4, pepN48 (peptide of the 48 N-terminal extracellular amino acids of human CXCR2) (human, biotin labeled on its N-terminus (panning, ELISA, SPR)); experiment: SPR, Biacore T200; biotinylated pepN48 on SA chip;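 further: antibodies flowed in HBS-EP+ running buffer over the immobilized antigen at 0.5 to 10 nM, kinetic traces fitted to a protein-protein interaction model to derive constants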
T4 construct: Synthetic; also called N-terminus of CXCR2
T4 peptide: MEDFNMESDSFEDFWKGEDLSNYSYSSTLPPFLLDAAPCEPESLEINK

hCXCR1-mCherry = molecular target: T5, hCXCR1-mCherry (human, UniProt P25024 1-350); experiment: FACS on transfected U2OS cells (also immunofluorescence)
T5 construct: whole, on cells; Overexpressed in U2OS cells; not shown: mCherry fluorescent tag
T5 sequence (looked up): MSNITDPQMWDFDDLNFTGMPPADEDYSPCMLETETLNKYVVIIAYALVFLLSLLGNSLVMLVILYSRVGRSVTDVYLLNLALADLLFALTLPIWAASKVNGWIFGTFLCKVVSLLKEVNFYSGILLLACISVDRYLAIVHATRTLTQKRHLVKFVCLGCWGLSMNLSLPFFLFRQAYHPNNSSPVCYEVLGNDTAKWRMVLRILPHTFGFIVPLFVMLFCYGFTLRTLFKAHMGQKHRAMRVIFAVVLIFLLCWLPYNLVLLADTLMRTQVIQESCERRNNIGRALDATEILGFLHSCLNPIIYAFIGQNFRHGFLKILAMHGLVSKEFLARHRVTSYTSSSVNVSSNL

mCXCR2-mCherry = molecular target: T6, mCXCR2-mCherry (mouse, UniProt P35343 1-359); experiment: as above
T6 construct: whole, on cells; Overexpressed in U2OS cells; also called CXCR2 of mouse; not shown: mCherry fluorescent tag
T6 sequence (looked up): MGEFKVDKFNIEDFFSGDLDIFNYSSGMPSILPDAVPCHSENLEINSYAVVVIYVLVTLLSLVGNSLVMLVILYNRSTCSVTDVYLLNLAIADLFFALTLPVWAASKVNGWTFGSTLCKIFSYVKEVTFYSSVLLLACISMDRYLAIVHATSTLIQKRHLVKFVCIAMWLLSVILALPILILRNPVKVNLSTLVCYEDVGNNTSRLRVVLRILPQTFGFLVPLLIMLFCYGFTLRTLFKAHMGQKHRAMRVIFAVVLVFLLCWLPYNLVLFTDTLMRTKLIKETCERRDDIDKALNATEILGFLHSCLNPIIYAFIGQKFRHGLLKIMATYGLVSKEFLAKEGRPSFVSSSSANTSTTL

pepN9-19 = molecular target: T7, pepN9-19 (human); experiment: binding to truncated synthetic peptides (FIG. 9); method not named
T7 construct: Synthetic peptide, residues 9-19 of human CXCR2 (DSFEDFWKGED); also called NT9-19; pep9-19
T7 peptide: DSFEDFWKGED

pepN48Δ9-19 = molecular target: T8, pepN48Δ9-19 (human); experiment: as above
T8 construct: pepN48 with residues 9-19 deleted; also called pepN48 lacking 9-19 aa
T8 peptide: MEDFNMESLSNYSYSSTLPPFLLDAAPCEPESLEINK

[5] = molecular target: T4, pepN48 (peptide of the 48 N-terminal …); experiment: SPR

β-arrestin recruitment, Tango assay, apparent EC50 [1]: 4.5 nM
Molecule: IL8 (from UniProt P10145 28-99) (ligand)

Kd [2]: 2.6 nM
percent of cells in quadrant Q1-UR (FITC-A high and ECD-A high) [3]: 46.2%
B1: H8 (abN48) scFv combinatorial antibody (scFv, part only; not given: linker, domain order, IgG1 Fc, V domains shown, not shown: another chain or arm of the molecule; a dimerising Fc or GST; small tags and cut ends)
VH: QVQLVQSGAEVKKPGSSVKVSCKASGGTLSSYAISWVRQAPGQGPEWMGWINPNSGGTNYAQKFQGRVTMTRDTSISTAYMELSRLRPDDTAVYYCASGYCSSTSCYDYWGQGTLVTVSS
VL: QAVLTQPSSLSASPGASVSLTCTLRSGINVGAYRIYWYQQKPGSPPQFLLRYKSDSDKQQGSGVPSRFSGSRDASANAGILLISGLRSEDEADYYCAIWHSSAWVFGGGTQLTVL

binding result (pepN9-19): binds
binding result (pepN48Δ9-19): no binding
B6: abN48-2 Fab (Fab, V domains shown)
VH: B1 VH with S103R, S105R
VL: QAVLTQPSSLSASPGASVSLTCTLRSGINVGAYRIYWYQQKPGSPPQFLLRYKSDSDKQQGSGVPSRFSGSRDASANAGILLISGLRSEDEADYYCAIWHSSAWVFGGGTQLTVLG
notes: Made as abN48 Fab ('following a similar protocol'); also called abN48-2 (Fab form); Fab form of abN48-2-IgG2 (so in the source)

Kd [4]: 0.012 nM
koff [4]: 0.00015 s⁻¹
kon [4]: 1.3e+07 M⁻¹ s⁻¹
B7: abN48-7 (antibody, V domains shown)
VH: B1 VH with S102G, S103R, T104A, S105R, Y107T, D108S, Y109F
VL: B6 VL
notes: format as tested not clearly stated

Kd [4]: ≤ 0.0012 nM
koff [4]: ≤ 1e-06 s⁻¹
kon [4]: 810000 M⁻¹ s⁻¹
B8: abN48-5 (antibody, V domains shown)
VH: B1 VH with S103R, T104F, S105N, Y107K
VL: B6 VL
notes: as for B7

Kd [4]: 0.21 nM
koff [4]: 1.8e-05 s⁻¹
kon [4]: 85000 M⁻¹ s⁻¹
B9: abN48-6 (antibody, V domains shown)
VH: B1 VH with S103P, T104S, S105G, D108V
VL: B6 VL
notes: as for B7

Kd [4]: 0.016 nM
koff [4]: 2e-05 s⁻¹
kon [4]: 1.2e+06 M⁻¹ s⁻¹
B10: abN48-8 (antibody, V domains shown)
VH: B1 VH with S103R, T104S, S105R
VL: B6 VL
notes: as for B7

More lines, now with the values behind:

Molecule: GROα (CXCL1) (from UniProt P09341 35-107) (ligand)
β-arrestin recruitment, Tango assay, apparent EC50 [1]: 5.3 nM

B2: abN48-IgG1 (antibody, V domains shown)
VH: B1 VH
VL: B6 VL
notes: also called full-length abN48
inhibition of GROα-induced (EC80) β-arrestin recruitment, Tango assay, apparent IC50 [1]: 4.7 nM
inhibition of GROα-induced (EC90) Ca2+ influx, FLIPR, IC50 [1]: 1000 nM
inhibition of IL8-induced (EC80) β-arrestin recruitment, Tango assay, apparent IC50 [1]: 2.8 nM
inhibition of IL8-induced (EC90) Ca2+ influx, FLIPR, IC50 [1]: 190 nM
binding result (rCXCR2-mCherry): no binding (tested: 2 µg/mL)
binding result (rbCXCR2-mCherry): no binding (tested: 2 µg/mL)
Kd [4]: 0.78 nM
koff [4]: 0.00035 s⁻¹
kon [4]: 350000 M⁻¹ s⁻¹
binding result (hCXCR1-mCherry): no binding (tested: 2 µg/mL)
binding result (mCXCR2-mCherry): no binding (tested: 2 µg/mL)

B3: abN48 Fab (Fab, V domains shown)
VH: B1 VH
VL: B6 VL
notes: also called abN48 (Fab form); Fab form of abN48-IgG1
binding result (pepN9-19): binds
binding result (pepN48Δ9-19): no binding

B4: abN48-4 (antibody, V domains shown)
VH: B1 VH with S102N, S103R, S105R, Y109H
VL: B6 VL
notes: as for B7
Kd [4]: 0.031 nM
koff [4]: 1.6e-05 s⁻¹
kon [4]: 520000 M⁻¹ s⁻¹

B5: abN48-2-IgG1 (antibody, V domains shown)
VH: B1 VH with S103R, S105R
VL: B6 VL
notes: Full-length human IgG1, lambda light chain; also called ab48-2-IgG1; abN48-2-IgG2 (as misprinted)
fold improvement of KD against abN48-IgG1 [5]: 100 fold
inhibition of GROα-induced (EC80) β-arrestin recruitment, Tango assay, apparent IC50 [1]: 0.37 nM
inhibition of GROα-induced (EC90) Ca2+ influx, FLIPR, IC50 [1]: 110 nM
inhibition of IL8-induced (EC80) β-arrestin recruitment, Tango assay, apparent IC50 [1]: 0.9 nM
inhibition of IL8-induced (EC90) Ca2+ influx, FLIPR, IC50 [1]: 44 nM
partial agonist effect on Ca2+ influx, FLIPR, apparent EC50 [1]: 310 nM
binding result (rCXCR2-mCherry): no binding (tested: 2 µg/mL)
binding result (rbCXCR2-mCherry): no binding (tested: 2 µg/mL)
Kd [4]: 0.0072 nM
binding result (hCXCR1-mCherry): no binding (tested: 2 µg/mL)
binding result (mCXCR2-mCherry): no binding (tested: 2 µg/mL)

B11: abN48-3 (antibody, V domains shown)
VH: B1 VH with S103F, T104A, S105I, Y107F, Y109S
VL: B6 VL
notes: as for B7
Kd [4]: 0.63 nM
koff [4]: 0.00016 s⁻¹
kon [4]: 360000 M⁻¹ s⁻¹

B12: abN48-1 (antibody, V domains shown)
VH: B1 VH with Y100F, S102T, S103R, S105I, Y107F, D108V
VL: B6 VL
notes: Format as tested not clearly stated (sub-cloned to pFuse vector, expressed in HEK293T)
Kd [4]: 0.26 nM
koff [4]: 6.4e-05 s⁻¹
kon [4]: 250000 M⁻¹ s⁻¹
